Measurements taken from paper PMC5651247, “Factor H-Related (FHR)-1 and FHR-2 Form Homo- and Heterodimers, while FHR-5 Circulates Only As Homodimer in Human Plasma” (Frontiers in Immunology, 2017).

B1: Recombinant human FHR-2 (rFHR-2), C-terminal 6×His (natural protein, UniProt P36980 19-270, looked up)
chain: EAMFCDFPKINHGILYDEEKYKPFSQVPTGEVFYYSCEYNFVSPSKSFWTRITCAEEGWSPTPKCLRLCFFPFVENGHSESSGQTHLEGDTVQIICNTGYRLQNNENNISCVERGWSTPPKCRSTISAEKCGPPPPIDNGDITSFLLSVYAPGSSVEYQCQNLYQLEGNNQITCRNGQWSEPPKCLDPCVISQEIMEKYNIKLKWTNQQKLYSRTGDIVEFVCKSGYHPTKSHSFRAMCQNGKLVYPSCEEK
modifications: DyLight 488 or DyLight 594, 3 to 4 labels per monomer (the labelled copies of the FRET assays; unlabelled where added in excess and in the ELISA)
notes: Complement factor H-related protein 2 (FHR-2), human; Labelled and unlabelled copies of the same construct are kept as one molecule; also called rFHR-2^488; rFHR-2^594; not shown: 6×His, C-terminal, kept

Legend:
[1] = target: B1; assay: FRET or BRET; monomer exchange: pre-equilibrated 488- and 594-labelled protein, then a >5 times molar excess of unlabelled rFHR added; loss of FRET signal followed; 37°C, PBS with 1 mg/mL IVIg; first-order exponential fit; settings: both partners purified
[2] = target: the molecule itself; assay: as above
[3] = target: the molecule itself; assay: FRET or BRET; monomer exchange: equimolar DyLight 488- and 594-labelled protein mixed and followed in time; 37°C, 200 ng/mL in degassed PBS with 1 mg/mL IVIg; first-order exponential fit

Binder	observed rate constant k of monomer exchange [1]	observed rate constant k of monomer exchange [2]	dissociation half-life [3]
Recombinant human FHR-1 (rFHR-1), CFHR1*A allotype, C-terminal 6×His (natural protein, UniProt Q03591 19-330, looked up, also called native rFHR-1; unlabeled rFHR-1; not shown: 6×His, C-terminal, kept) EATFCDFPKINHGILYDEEKYKPFSQVPTGEVFYYSCEYNFVSPSKSFWTRITCTEEGWSPTPKCLRLCFFPFVENGHSESSGQTHLEGDTVQIICNTGYRLQNNENNISCVERGWSTPPKCRSTDTSCVNPPTVQNAHILSRQMSKYPSGERVRYECRSPYEMFGDEEVMCLNGNWTEPPQCKDSTGKCGPPPPIDNGDITSFPLSVYAPASSVEYQCQNLYQLEGNKRITCRNGQWSEPPKCLHPCVISREIMENYNIALRWTAKQKLYLRTGESAEFVCKRGYRLSSRSHTLRTTCWDGKLEYPTCAKR	0.00053 s⁻¹	–	–
Recombinant human FHR-5 (rFHR-5), C-terminal 6×His (natural protein, UniProt Q9BXR6 19-569, looked up, DyLight 488 or DyLight 594, 3 to 4 labels per monomer (the labelled copies of the FRET assays; unlabelled where added in excess), Complement factor H-related protein 5 (FHR-5), human; Labelled and unlabelled copies of the same construct are kept as one molecule; also called rFHR-5^488; rFHR-5^594; not shown: 6×His, C-terminal, kept) EGTLCDFPKIHHGFLYDEEDYNPFSQVPTGEVFYYSCEYNFVSPSKSFWTRITCTEEGWSPTPKCLRMCSFPFVKNGHSESSGLIHLEGDTVQIICNTGYSLQNNEKNISCVERGWSTPPICSFTKGECHVPILEANVDAQPKKESYKVGDVLKFSCRKNLIRVGSDSVQCYQFGWSPNFPTCKGQVRSCGPPPQLSNGEVKEIRKEEYGHNEVVEYDCNPNFIINGPKKIQCVDGEWTTLPTCVEQVKTCGYIPELEYGYVQPSVPPYQHGVSVEVNCRNEYAMIGNNMITCINGIWTELPMCVATHQLKRCKIAGVNIKTLLKLSGKEFNHNSRIRYRCSDIFRYRHSVCINGKWNPEVDCTEKREQFCPPPPQIPNAQNMTTTVNYQDGEKVAVLCKENYLLPEAKEIVCKDGRWQSLPRCVESTAYCGPPPSINNGDTTSFPLSVYPPGSTVTYRCQSFYKLQGSVTVTCRNKQWSEPPRCLDPCVVSEENMNKNNIQLKWRNDGKLYAKTGDAVEFQCKFPHKAMISSPPFRAICQEGKFEYPICE	–	0.0012 s⁻¹	< 30 min
B1	–	0.0004 s⁻¹	< 30 min
